Measurements: patent US20200270570A1

Assays:
[1] = target: T1, mouse Fz8 (mouse) (UniProt Q61091); assay: FIG. 12A: L-Wnt3A incubated with Fz8 for 12 h RT, ultracentrifugation, western blot
T1 sequence (looked up): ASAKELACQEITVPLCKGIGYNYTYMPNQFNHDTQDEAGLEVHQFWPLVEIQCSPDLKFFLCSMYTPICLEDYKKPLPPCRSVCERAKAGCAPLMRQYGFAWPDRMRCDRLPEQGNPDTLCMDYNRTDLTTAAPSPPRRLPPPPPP

[2] = target: T1, mouse Fz8 (mouse); assay: FIG. 11A: preformed L-Wnt3A incubated with Fz8 6 h RT, ultracentrifugation, western blot
[3] = target: T1, mouse Fz8 (mouse); assay: FIG. 12A: preformed L-Wnt3A incubated with Fz8 (longer time course), ultracentrifugation, immunoblot
[4] = target: L-Wnt3A (Wnt3A reconstituted into liposomes) (human) (UniProt P56704); assay: FIG. 11A: preformed L-Wnt3A incubated with Fz8 6 h RT, ultracentrifugation, immunoblot
[5] = target: L-Wnt3A (Wnt3A reconstituted into liposomes) (human) (UniProt P56704); assay: FIG. 12A: preformed L-Wnt3A incubated with Fz8 (longer time course), ultracentrifugation, immunoblot

Chain of UniProt P56704 (P56704 19-352 limits assumed): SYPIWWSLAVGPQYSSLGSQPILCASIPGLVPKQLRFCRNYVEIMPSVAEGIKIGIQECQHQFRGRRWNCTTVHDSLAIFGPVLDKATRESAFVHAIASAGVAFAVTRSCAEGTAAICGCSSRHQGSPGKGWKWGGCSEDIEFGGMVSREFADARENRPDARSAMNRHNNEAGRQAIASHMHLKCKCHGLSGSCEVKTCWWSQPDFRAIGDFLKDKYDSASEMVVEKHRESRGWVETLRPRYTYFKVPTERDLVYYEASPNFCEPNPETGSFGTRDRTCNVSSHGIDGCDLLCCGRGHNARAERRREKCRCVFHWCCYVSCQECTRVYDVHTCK

Row | percent of Wnt3A in Fz8 rich supernatant [1] [%] | percent of Wnt3A in liposomal pellet (not with Fz8) [2] [%] | percent of Wnt3A in liposomal pellet (not with Fz8) [3] [%] | percent of Fz8 in supernatant (not liposome-associated) [4] [%] | percent of Fz8 in supernatant (not liposome-associated) [5] [%] | Substance
1 | 11 | 100 | 88.7 | – | – | L-Wnt3A (Wnt3A reconstituted into liposomes) (from UniProt P56704 19-352)
2 | – | – | – | 98.6 | 94.5 | mouse Fz8 (from UniProt Q61091 28-173) (receptor)
